Test results: doi:10.1101/2022.06.29.497979, “Cryo-EM structure of a eukaryotic zinc transporter at a low pH suggests its Zn^2+-releasing mechanism” (bioRxiv, 2022)

Molecular target: the molecule itself
Experiment: cryo-EM structure; xtZnT8-Zn^2+: single-particle cryo-EM, 20 mM Tris-HCl pH 7.5, 150 mM NaCl, 5 mM beta-mercaptoethanol, 0.5 mM DDM, 1 mM ZnSO4; 3.9 A

B1: ZnT8 from Xenopus tropicalis, xtZnT8-BRIL fusion protein (natural protein, UniProt Q5XHB4 1-374, looked up)
chain: MKGSEEAYLVSDKATKMYSLTKDSEKNHPSKPPLQDEENPQSKYHCHNNNKKAYDARQREQTFAKKKLCIASLICFVFISAEIVGGYIAGSLAVVTDAAHLLVDLSSFFISLCSLWLSSKSSTTRLTFGWHRAEILGALMSVITIWLVTGVLVYLACERLIRPDYTIDGTVMLITSACALGANLVLALILHQSGHGHSHAGGKHEHMASEYKPQTNASIRAAFIHVIGDLFQSISVLISALIIYFKPEYKMADPICTFIFSIFVLITTVTVLRDLLTVLMEGTPRGIHYSDVKQSILAVDGVKSVHSLHLWALTMNQVILSAHIATDIVGESKRILKDVTQNVFARFPFHSVTIQVEPIEDQSPECMFCYEPTQ
notes: Zinc transporter 8 (ZnT8, SLC30A8) from Xenopus tropicalis, full-length wild type, NCBI NP_001011041.1; BRIL was fused to the carboxy-end of xtZnT8 before the TEV site and His10; it is written as a carrier under tags; also called zinc transporter 8; xtZnT8-Zn^2+; not shown: BRIL (bacterial cytochrome b562RIL), C-terminal, kept
Question: How did the “stoichiometry N” value turn out when B1 was run?
Answer: The value was 2.
